# According to the RNAGym collection of RNA variant scans (doi:10.7554/elife.80360):
# B1: Twister Ribozyme (parent)
# chain: AACACUGCCAAUGCCGGUCCCAAGCCCGGAUAAAAGUGGAGGGGGCGG
# Variants of: B1
# Test: self-cleavage, relative activity (ratio to wild type); higher = more cleavage; co-transcriptional
row,Variant,self-cleavage
1,C14G G43A,0.0789
2,C14U C15U,1.51
3,C14U C15A,0.636
4,G13U G43C,0.137
5,G13U G43U,0.155
6,C15A C20A,0.0707
7,C15A C20U,0.397
8,C15A C21A,0.133
9,C15A C21U,0.0997
10,G13U A22G,0.098
11,G13U A22U,0.174
12,G13C G44C,0.185
13,G13C G44U,0.254
14,G13U G38A,0.226
15,C14A C26A,0.38
16,C14A C26U,0.247
17,C14A C20G,0.126
18,C14A C20A,0.165
19,C14G C25G,0.0771
20,C14G C25U,0.0566
21,G13C C25G,0.101
22,G13C C25U,0.163
23,C15A C19A,0.0896
24,C15A C19G,0.151

row,Variant,self-cleavage
1,C15A C19U,0.566
2,C14U G47C,0.616
3,C14U G47U,1
4,C15A G43U,0.258
5,C15A G43C,0.17
6,C15A C46G,0.525
7,C15A C46U,0.623
8,C15A G17U,0.0769
9,C15A G17A,0.061
10,C15G A23U,0.06
11,C15G A23C,0.137
12,C15G A40U,0.0313
13,C14A C27G,0.0739
14,C14A C27A,0.31
15,C14U G45C,0.713
16,C14U G45A,0.999
17,C14U G45U,0.964
18,C15A A22U,0.24
19,C15A A22G,0.141
20,G13U C20U,0.134
21,G13C G43A,0.0854
22,G13C G43C,0.105
23,C14G U31G,0.158
24,C14G U31C,0.142

row,Variant,self-cleavage
1,C14G U31A,0.153
2,G13U C14U,0.635
3,C14G G17U,0.101
4,C15G G16A,0.498
5,C14A A35G,0.718
6,G13C G38C,0.32
7,C14A G24A,0.18
8,C14A G24U,0.146
9,C14A G24C,0.0765
10,C15A A40G,0.107
11,C15A A40C,0.136
12,C14G A23G,0.103
13,C14U C46A,1.05
14,C15A C26U,0.0725
15,C14A A33C,0.884
16,C14A A33G,0.84
17,G13U G24U,0.0911
18,G13U G24A,0.0906
19,C14U C26G,0.235
20,C14U C26A,0.497
21,C14A G17C,0.12
22,C14A G17A,0.457
23,G13C G42C,0.166
24,G13C G42U,0.112

row,Variant,self-cleavage
1,C14G A22U,0.128
2,C14G A22C,0.372
3,G13C C15A,0.0696
4,G13C C15G,0.0922
5,C14G C27U,0.0942
6,C14G C27G,0.0942
7,C14G C27A,0.0743
8,C14A A30C,0.819
9,C14A A30G,0.803
10,C14U A35U,1.03
11,C14U A35C,1.05
12,C14U A35G,0.917
13,G13C G28C,0.31
14,G13C G28U,0.255
15,G13C G28A,0.307
16,C15A G41U,0.177
17,G13C C14A,0.593
18,C15A A30U,0.89
19,C15A A30C,0.648
20,C14U A34G,0.885
21,C14U G28U,1.08
22,C14A G38U,0.676
23,G13U A30U,0.749
24,C14G A34G,0.182

row,Variant,self-cleavage
1,C14U U18G,0.0637
2,C14U A22U,0.848
3,C14G A33C,0.176
4,C14G A33G,0.0896
5,C14G G47C,0.0728
6,C14G G47U,0.0804
7,G13A U31G,1.01
8,G13U G17C,0.0903
9,C15A U18A,0.0699
10,C15A U18C,0.104
11,G13U C21A,0.0794
12,G13U C21G,0.0567
13,C14G U18C,0.074
14,C14G U18G,0.0282
15,C14G U18A,0.0727
16,G13U C26A,0.129
17,G13C G41C,0.104
18,G13C G41A,0.0914
19,G13C G41U,0.0855
20,C14U G24U,0.135
21,C14U G24A,0.173
22,C14U G24C,0.102
23,C14U G17A,0.538
24,G13C C26G,0.101

row,Variant,self-cleavage
1,G13C G39U,0.108
2,G13C G39C,0.117
3,G13U A32U,0.489
4,G13U A32G,0.354
5,C14A A23C,0.348
6,C14G A30C,0.16
7,C14G A30G,0.122
8,C15G A30U,0.108
9,C15G A33U,0.121
10,C14U G42A,0.456
11,C14U A32U,1.04
12,C14G C46A,0.078
13,C15A G38U,0.355
14,G13U,0.801
15,G13C,0.584
16,C14U U37C,0.602
17,C15G,0.101
18,C15A,0.801
19,C14U C21G,0.108
20,C15G C26G,0.0537
21,C14G A32U,0.184
22,C14A A34U,0.866
23,G13C A33G,0.676
24,G13C A33U,0.335

row,Variant,self-cleavage
1,C15G A34U,0.109
2,C15G A34G,0.103
3,C14G C19G,0.078
4,C14G C19A,0.0588
5,C15A U31C,0.718
6,C15A C27U,0.0943
7,C15A C27A,0.18
8,G13C G36C,0.122
9,G13C G36A,0.126
10,C14G G44U,0.125
11,C14G G44A,0.174
12,G13C C27G,0.104
13,G13C A34U,0.137
14,G13C A34G,0.253
15,G13C A34C,0.0766
16,C15A G39C,0.124
17,C15A G39U,0.172
18,C14A G43A,0.309
19,C14A G43C,0.182
20,G13U G36U,0.107
21,C14U A30G,1.02
22,C14U G48U,1.17
23,C14U C27U,0.896
